Data: patent US20030219441A1

Experiments:
[1] = target: Recombinant human truncated Tissue Factor (tTF) (human) (UniProt P13726); experiment: cell-based or functional assay
[2] = target: I-A^d MHC Class II antigen on A20 cells (mouse) (UniProt P04228); experiment: 125I-labelled Fab' binding to A20 cells
[3] = target: Recombinant human truncated Tissue Factor (tTF) (human) (UniProt P13726); experiment: 125I-tTF (in molar excess) tethered to A20 cells (I-A^d) through the bispecific antibody, at saturation
[4] = target: I-A^d MHC Class II antigen on A20 cells (mouse) (UniProt P04228); experiment: method not given

UniProt P13726, sequence (P13726 33-251): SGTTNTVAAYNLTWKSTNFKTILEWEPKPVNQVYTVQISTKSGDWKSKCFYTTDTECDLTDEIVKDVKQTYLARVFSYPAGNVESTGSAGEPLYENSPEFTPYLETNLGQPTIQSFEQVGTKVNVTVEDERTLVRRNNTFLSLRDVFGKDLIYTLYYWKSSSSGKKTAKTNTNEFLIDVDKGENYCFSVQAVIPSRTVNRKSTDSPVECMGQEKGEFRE
UniProt P04228, sequence (P04228 24-256, chain 1 of 2): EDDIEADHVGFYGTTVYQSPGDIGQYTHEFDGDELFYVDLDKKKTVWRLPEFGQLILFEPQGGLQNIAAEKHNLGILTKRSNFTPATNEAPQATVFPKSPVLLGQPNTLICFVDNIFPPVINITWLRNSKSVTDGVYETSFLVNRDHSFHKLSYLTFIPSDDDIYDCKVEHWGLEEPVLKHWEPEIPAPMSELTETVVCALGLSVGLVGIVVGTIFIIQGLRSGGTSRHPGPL
UniProt P04228, sequence (P01921 28-265, chain 2 of 2, further chain): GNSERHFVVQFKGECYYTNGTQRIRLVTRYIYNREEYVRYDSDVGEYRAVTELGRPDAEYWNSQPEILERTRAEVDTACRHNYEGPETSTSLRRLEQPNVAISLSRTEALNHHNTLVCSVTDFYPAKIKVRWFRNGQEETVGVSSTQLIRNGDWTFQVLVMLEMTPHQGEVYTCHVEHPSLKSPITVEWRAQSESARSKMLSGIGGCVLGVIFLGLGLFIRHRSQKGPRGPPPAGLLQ

Row | Coagulation time (sec) of mouse plasma added to A20 cells incubated with the reagents [1] [s] | coagulation time of mouse plasma, A20 cells incubated with 21.5 nM bispecific antibody and 69 nM tTF [1] [s] | Substance | further results
1 | 165 | 140 | B21-2/OX7 bispecific antibody | 
2 | 36 | 60 | B21-2/10H10 bispecific antibody | molecules of tTF bound per A20 cell (molecules per cell) [3]: 310000
3 | 168 |  | B21-2 F(ab')2 | 

Continued, substance first:

Row | Substance | Coagulation time (sec) of mouse plasma added to A20 cells incubated with the reagents [1] [s] | coagulation time of mouse plasma, A20 cells incubated with 21.5 nM bispecific antibody and 69 nM tTF [1] [s] | further results
4 | 10H10 Fab' | 162 |  | 
5 | 10H10 F(ab')2 | 160 |  | 
6 | B21-2 Fab′ | 165 |  | concentration at which saturation of binding is reached [2]: 21.5 nM
7 | B21-2 antibody |  |  | fold better affinity than M5/114 [4]: 10 fold
8 | SFR8/10H10 bispecific antibody | 154 | 140 | 
